Test results as given in US20160362464A1.

Key:
[1] = biological target: CFP-Gβ1 with untagged Gγ2; experiment: FRET at the plasma membrane of control HeLa cells, before Wnt5a stimulation (FIG. 2J, L)
[2] = biological target: CFP-Gβ1 with untagged Gγ2; experiment: FRET at the plasma membrane of control HeLa cells, within 5 min after Wnt5a stimulation (FIG. 2J, L)
FZD7-CFP [3] = experiment: FRET at the plasma membrane of HEK293 cells within 5 min after Wnt5a stimulation (FIG. 4H, I)
FZD7-CFP [4] = experiment: FRET at the plasma membrane of starved HEK293 cells; printed: No such interaction was observed in starved cells (FIG. 4H, I)

Sequence of CFP-Gβ1 with untagged Gγ2 (P62873 2-340, chain 1 of 2): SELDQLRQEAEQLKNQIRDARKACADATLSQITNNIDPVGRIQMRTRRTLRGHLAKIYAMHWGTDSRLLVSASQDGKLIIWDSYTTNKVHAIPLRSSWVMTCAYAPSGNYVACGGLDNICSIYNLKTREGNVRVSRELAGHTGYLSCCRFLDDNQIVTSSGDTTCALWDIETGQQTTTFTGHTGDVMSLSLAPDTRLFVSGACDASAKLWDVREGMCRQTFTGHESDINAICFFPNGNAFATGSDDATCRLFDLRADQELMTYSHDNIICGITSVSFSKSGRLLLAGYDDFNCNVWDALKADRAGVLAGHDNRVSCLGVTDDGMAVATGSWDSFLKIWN
Sequence of CFP-Gβ1 with untagged Gγ2 (P59768 2-68, chain 2 of 2, further chain): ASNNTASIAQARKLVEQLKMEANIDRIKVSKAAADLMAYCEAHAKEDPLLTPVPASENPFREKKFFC
Sequence of Gαi1-YFP (internally tagged) (P10824 2-354): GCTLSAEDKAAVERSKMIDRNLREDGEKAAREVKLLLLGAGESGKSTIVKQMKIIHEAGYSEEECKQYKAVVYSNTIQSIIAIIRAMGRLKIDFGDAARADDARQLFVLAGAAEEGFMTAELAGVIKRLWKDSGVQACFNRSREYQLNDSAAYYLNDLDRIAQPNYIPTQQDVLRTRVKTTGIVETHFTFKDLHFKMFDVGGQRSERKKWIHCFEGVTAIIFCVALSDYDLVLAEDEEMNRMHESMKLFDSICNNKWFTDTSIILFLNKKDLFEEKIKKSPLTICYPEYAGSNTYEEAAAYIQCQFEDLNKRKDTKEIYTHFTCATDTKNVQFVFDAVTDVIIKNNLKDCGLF

Substance | FRET efficiency [1] | FRET efficiency [2] | FRET efficiency (FZD7-CFP [3]) | FRET efficiency (FZD7-CFP [4])
Gαi1-YFP (internally tagged) | 0.36 | 0.17 | – | –
Gαi3-YFP (internally tagged) | – | – | 0.25 | 0.04
